Results published in publication PMC8117158.

Key:
[1] = target: IscS^C–GFP (E. coli K-12) (UniProt P0A6B7); assay: split reporter (BiFC, NanoBiT); BiFC by reconstitution of GFP from N-GFP and C-GFP fusions co-expressed in E. coli BL21(DE3) Gold; fluorescence microscopy of cells on agarose slides, normalised to empty vectors
[2] = target: IscU^N–GFP (E. coli K-12) (UniProt P0ACD4); assay: as above
UniProt P0ACD4, sequence (P0ACD4 whole entry): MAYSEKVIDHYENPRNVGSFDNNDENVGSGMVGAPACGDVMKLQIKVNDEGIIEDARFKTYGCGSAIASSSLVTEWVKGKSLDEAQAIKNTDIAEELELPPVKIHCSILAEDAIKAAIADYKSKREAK

UniProt P0A6B7, sequence (P0A6B7 whole entry, the tested form may be a part): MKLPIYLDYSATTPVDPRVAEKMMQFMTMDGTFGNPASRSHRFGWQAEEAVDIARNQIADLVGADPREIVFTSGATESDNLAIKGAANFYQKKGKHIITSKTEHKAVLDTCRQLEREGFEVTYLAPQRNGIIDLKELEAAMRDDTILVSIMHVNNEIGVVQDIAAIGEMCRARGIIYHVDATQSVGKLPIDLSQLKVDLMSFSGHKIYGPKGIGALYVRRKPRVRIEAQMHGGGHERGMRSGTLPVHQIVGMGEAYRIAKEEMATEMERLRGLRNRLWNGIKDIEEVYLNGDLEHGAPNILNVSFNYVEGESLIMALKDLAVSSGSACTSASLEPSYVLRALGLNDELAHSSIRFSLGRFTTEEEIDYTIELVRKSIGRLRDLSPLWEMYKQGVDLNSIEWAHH

fold fluorescence over the control [1]	fold fluorescence over the control [2]	Substance
6 fold		YtfE^N–GFP (from UniProt P69506 1-220) (natural protein)
	3 fold	YtfE^C–GFP (from UniProt P69506 1-220) (natural protein)
